B1: mAb1 (antibody, human IgG1, V domains shown)
VH: DVQLQESGPGLVKPSQSLSLTCTVTGYSITGGFAWNWIRQFPGNTLEWMGYIGYGGSTSYNPSLNSRISITRDTSKNHFFLQFNSVTTDDSATYYCARGDYLFAYWGQGTLVTVSA
VL: DIVMTQSHKFMSTSVGDRVSITCKASQDVNTAVAWYQQKPGQSPKLLIYSASYRYTGVPDRFTGSGSGTDFTFTISSVQAEDLAVYYCQQHYSTPRTFGGGTKLEIK
B2: mAb3 (antibody, human IgG1, V domains shown)
VH: B1 VH with D1E, Q5L, S7T, D89E
VL: DILMTQSPASLSASVGETVSITCRASGNIHNYLAWYLQRQGKSPQLLVYNAKTLADGVPSRFSGTGSGTQFSLKINSLQPEDFGSYYCQHFWSTPRTFGGGTKLEIK
B3: mAb2 (antibody, human IgG1, V domains shown)
VH: B1 VH with D1E, D89E
VL: B1 VL
B4: mAb4 (antibody, human IgG1, V domains shown)
VH: DVQLVESGGDLVKPGGSLKLSCAASGFAFSSYDMSWVRQSPEKRLEWIAHIGSGGGNIYYPDTVKGRFTISRDNAKNTLYLQMRSLKSEDTAMYYCARLIFTTGFYGMDYWGQGTSVTVSS
VL: DIQMTQTTSSLSASLGDRVTISCRASQDISSYLNWYQQKPDGTIKLLIYYTSRLHSGVPSRFSGSGSGTDYSLTISNLDQDDIATYFCQQGNALPWTFGGGTKLEIK
B5: mAb5 (antibody, human IgG1, V domains shown)
VH: EIQLQQSGPELEKPGASVKISCKASGYSFSDYNMNWVKQSNGKSLEWIGNIDPYYGATSYNQRFKGKATLTVDKSSSTAYMQLKSLTSEDSAVYYCARGDSLFAYWGHGTLVTVSA
VL: DIVMTQSQEFMSTSLGDRVSVTCKASQNVGTNVAWYQQKPGQSPKALLYSASSRYSGVPDRFTGSGSGTDFTLTISNVQSEDLAEYFCQQYITYPYTFGGGTKLEIK
B6: mAb6 (antibody, human IgG1, V domains shown)
VH: B5 VH with H108Q
VL: B5 VL with S76N, V78M

A word on the EC50: it is the concentration that produces a half-maximal response. Higher therefore signals a less potent agent.

Residue numbers refer to the chain shown, from its start.

The target in this assay is Siglec-7 and/or Siglec-9 on fresh purified human NK cells. Put plainly: flow cytometry on fresh purified human NK cells, mean of 4 donors. For orientation: A flow cytometer gives signals particle by particle.
Consider B1, for which the 50% effective concentration (EC50) was determined as 0.05 µg/mL.
Then B2, with 0.19 µg/mL; and B3, with 0.07 µg/mL; and B4, with 0.61 µg/mL.
B5: the half-maximal effective concentration (EC50) was found to be 1.27 µg/mL.
Next, B6: 1.3 µg/mL.

The values are drawn from patent US20200369765A1.
